How the values were obtained:
[1] = target: Flrt1b ectodomain (zebrafish); assay: SPR; BIAcore, kinetic analysis; same surfaces; three concentrations of Unc5b-Cd4d3+4-6His, flow 100 μl/min, 10 Hz, global fit of first-order decay and of an association model; HBS-EP, 28°C; purification of the Flrt baits not stated
[2] = target: Flrt3 ectodomain (zebrafish); assay: as above
[3] = target: Flrt1a ectodomain (zebrafish); assay: as above
[4] = target: Flrt1b ectodomain (zebrafish); assay: SPR; BIAcore, equilibrium analysis; biotinylated Flrt-Cd4d3+4-bio baits (about 1000 RU) on a streptavidin-coated chip, Cd4d3+4-bio as reference; purified monomeric Unc5b-Cd4d3+4-6His injected; HBS-EP, 28°C; purification of the Flrt baits not stated
[5] = target: Flrt3 ectodomain (zebrafish); assay: as above
[6] = target: Flrt1a ectodomain (zebrafish); assay: as above

- koff [1]: 0.6 s⁻¹
- kon [1]: > 100000 M⁻¹ s⁻¹
- t1/2 [1]: 1.2 s
- kon [2]: > 100000 M⁻¹ s⁻¹
- koff [3]: > 7 s⁻¹
- kon [3]: > 100000 M⁻¹ s⁻¹
- t1/2 [3]: < 0.1 s
- Kd [4]: 4 µM
- Kd [5]: 14 µM
- Kd [6]: > 50 µM
Substance: Unc5b-Cd4d3+4-6His (domain or fragment)

From PMC2768988
